According to patent US20230099200A1, “RADIOLABELED PEPTIDES FOR NON-INVASIVE DIAGNOSIS AND TREATMENT OF CXCR4 EXPRESSING TUMORS” (ISTITUTO NAZIONALE TUMORI IRCCS - FONDAZIONE G. PASCALE, priority 2019, published 2023):
Where two headings read alike, the source gives them in different places. Where a SMILES comes first, the peptide text is derived from it. Bridges are numbered along the chain shown (N, C = ends). [ ]: non-standard residue; d: D form. The star is where a group is joined. AMBHA = 6-(4-(aminomethyl)benzamido)hexanoic acid linker, NCc1ccc(C(=O)NCCCCCC(=O)*)cc1; DOTA = O=C(O)CN1CCN(CC(=O)O)CCN(CC(=O)*)CCN(CC(=O)O)CC1; NOTA = O=C(O)CN1CCN(CC(=O)O)CCN(CC(=O)*)CC1; 2Nal = N[C@@H](Cc1ccc2ccccc2c1)C(=O)O; Fmoc = O=C(OCC1c2ccccc2-c2ccccc21)*; Pen = CC(C)(S)[C@H](N)C(=O)O; 4Amb = NCc1ccc(C(=O)O)cc1; Ahx = NCCCCCC(=O)O

Tests used:
[1] = molecular target: T1, CXCR4 (Homo sapiens, UniProt P61073); assay: competitive binding with [^125I]CXCL12 as radioligand on CXCR4-expressing CCRF-CEM cells; design: using CXCR4-expressing CCRF-CEM cells, human T lymphoblastic leukemia cells CXCR4 expressing; endogenous in cells; host or cells: CCRF-CEM (human T-cell leukemia), whole cells; conditions: [^125I]CXCL12 radioligand, means ±SD, read-out: hCXCR4 binding affinity IC50
Protocol: Specifically, according to the present invention, DOTA and NOTA-AMBHA-R54 were synthesized by combining solid and solution-phase peptide synthesis. Binding affinities (IC50) were determined using CXCR4-expressing CCRF-CEM cells, human T lymphoblastic leukemia cells CXCR4 expressing, with [^125I]CXCL12 as radioligand. Chinese hamster ovary (CHO) and CHO cells transduced with human CXCR4 (CHO-hCXCR4) grown in complete medium supplemented with 1 mg/mL G418 (a kind gift of Dr. David McDermott (NIAID, NIH, Bethesda, Md.).
Binding affinities to hCXCR4 were assessed with CCRF-CEM cells (1·10^6 cells/sample) in binding buffer (PBS containing 50 mM HEPES, 1 mM CaCl2, 5 mM MgCl2, 0.5% BSA, and 0.3 mM NaN3) and [^125I]CXCL12 (Perkin-Elmer, 2200 Ci/mmol) as radioligand. Cells were incubated with 100.000 cpm of the respective radioligand (approx. 0.1 nM) plus increasing concentrations (10^−11 to 10^−5 M) of the respective peptide of interest (n=3 per concentration, total sample volume 250 μL). After incubation at 4° C. for 60 min (CCRF-CEM cells) at room temperature (RT), samples were centrifuged (5 min, 450 g, Megafuge 1.0, Heraeus Thermo Scientific), the supernatant was carefully removed and pooled with the supernatants of two subsequently performed washing steps. […]

[2] = molecular target: T1, CXCR4; conditions: competitive binding assay using anti-CXCR4 mAb 12G5; read-out: CXCR4 affinity IC50; cited from earlier work
[3] = tested on: CHO-hCXCR4 tumor; design: species or system mice; conditions: mouse, in vivo
Protocol: Female athymic nude mice (6 weeks old from Envigo Laboratories, Indianapolis, Ind., USA) were subcutaneously (s.c.) injected with 10^7 CHO (right flank) and CHO-hCXCR4 (left flank) or CHO-hCXCR4 cells alone (right flank). Once tumors became palpable (100=^3 [volume=0.5×long diameter×(short diameter)^2]), approximately 15-21 days post injection (p.i.), the animals were used for the experiments. 10-15 MBq of the respective ^68Ga-labeled peptide in 100 μL of PBS were injected into the tail vein of nude mice bearing CHO-hCXCR4 tumor (groups of n=3-5). For competition studies, 8 mg/kg of unlabeled […], were co-injected with the radioligands. At 45 min p.i., blood was collected from the retro-orbital plexus (100 μl) and mice were sacrificed and the tissues and organs of interest were dissected, weighed, and counted for radioactivity in a γ-counter. Biodistribution data are given as percent injected dose per gram tissue, % ID/g (means±SD). The biodistribution of [^68Ga]DOTA-AMBHA-R54 and [^68Ga]NOTA-AMBHA-R54 was investigated in CHO-hCXCR4 bearing […] mice (45 min p.i.). […] Data are given in % ID/g and are means±SD.

[4] = in vivo; design: species or system mice; conditions: female, athymic nude, mouse, iv, total radioactivity
Text: (§1) Female athymic nude mice (6 weeks old from Envigo Laboratories, Indianapolis, Ind., USA) were subcutaneously (s.c.) injected with 10^7 CHO (right flank) and CHO-hCXCR4 (left flank) or CHO-hCXCR4 cells alone (right flank). Once tumors became palpable (100=^3 [volume=0.5×long diameter×(short diameter)^2]), approximately 15-21 days post injection (p.i.), the animals were used for the experiments. Tumor-bearing CHO/CHO-hCXCR4 mice were i.v. injected with 10-15 MBq of the respective radiotracer in 100 μL of PBS. At 45 min p.i., mice were anaesthetized with Avertin and images were acquired using a Discovery 600 PET/TC scanner (GE healthcare) in 3D mode with measured attenuation correction (1 bed position, 6 min scanning time). Data were decay-corrected to the time of tracer injection. The reconstructed images including PET, CT and fused PET/TC images, were generated on the advantage workstation version (AW4.6 software, GE healthcare). Tissue activity (e.g. tumor, lung, liver, kidney) was quantified considering the volume of a region of interest (ROI) to determine maximum standardized uptake values (SUVmax). Non-specific tracer accumulation was investigated by co-injection of 8 mg/kg unlabeled peptide […]. CHO and CHO-hCXCR4 tumors were microscopically analyzed (H&E) and CXCR4 expression was evaluated through immunohistochemistry (IHC) (mab172, clone 44716, diluition 1:[…]&D system). The percentage of positive cells was evaluated in at least 5 areas (HPF 200× magnification) (Zeiss AxioScope light microscope). Statistical analysis was performed using the MedCalc 9.3.7.0 and Excel software. Unpaired Student t test was used for statistical analysis of ex vivo biodistribution and PET/TC images. The Spearman's correlation was used to measure the degree of association between SUV(max) and % CXCR4 IHC staining.

[5] = tested on: CHO-hCXCR4 xenografts; assay: in vivo; design: species or system mice; conditions: mouse; for tumor accumulation upon co-injection of unlabeled competitor (R54): 8 mg/kg
Text: as §1

[6] = molecular target: T2, human CXCR4 (chemokine receptor 4) on CCRF-CEM cells (human, UniProt P61073 1-352); assay: displacement of [125I]CXCL12 from CXCR4-expressing CCRF-CEM cells, gamma counting
T2 construct: whole, on cells; also called hCXCR4
Protocol: Cells were incubated with 100.000 cpm of the respective radioligand (approx. 0.1 nM) plus increasing concentrations (10⁻¹¹ to 10⁻⁵ M) of the respective peptide of interest (n=3 per concentration, total sample volume 250 μL). After incubation at 4° C. for 60 min (CCRF-CEM cells) at room temperature (RT), samples were centrifuged (5 min, 450 g, Megafuge 1.0, Heraeus Thermo Scientific), the supernatant was carefully removed and pooled with the supernatants of two subsequently performed washing steps. Then, the amount of free (pooled supernatants) and bound radioligand (cell pellet) was quantified using a γ-counter and expressed in percent of total added activity. The half maximal inhibitory concentration (IC₅₀) values were calculated using GraphPad Prism software (GraphPad Software, Inc., California).
To assess the influence of modifications and chelator conjugation on R54, the CXCR4 affinity of Fmoc-AMBHA-R54 (see above the structure), NOTA-AMBHA-R54 and DOTA-AMBHA-R54 peptides as well as unmodified R54 were tested in competitive binding with [¹²⁵I]CXCL12 as radioligand on CXCR4-expressing CCRF-CEM cells. Each experiment was performed in triplicate, and results are means ±SD from a minimum of three separate experiments.

T1 sequence (P61073 whole entry): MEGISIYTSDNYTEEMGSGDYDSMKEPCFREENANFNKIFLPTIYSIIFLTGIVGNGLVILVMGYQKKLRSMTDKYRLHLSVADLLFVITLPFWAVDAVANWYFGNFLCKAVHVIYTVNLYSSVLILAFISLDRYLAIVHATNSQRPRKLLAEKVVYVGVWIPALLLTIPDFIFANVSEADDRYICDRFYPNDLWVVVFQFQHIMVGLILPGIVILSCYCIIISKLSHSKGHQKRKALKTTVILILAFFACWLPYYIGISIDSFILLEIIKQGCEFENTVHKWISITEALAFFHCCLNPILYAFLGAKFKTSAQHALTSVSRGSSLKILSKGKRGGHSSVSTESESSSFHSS
T2 sequence (P61073 whole entry): as above

## CC(=O)N[C@@H](CCCNC(=N)N)C(=O)N[C@@H](C)C(=O)N[C@@H]1CSSC(C)(C)[C@@H](C(=O)O)NC(=O)[C@H](Cc2c[nH]cn2)NC(=O)[C@H](Cc2ccc3ccccc3c2)NC(=O)[C@H](CCCNC(=N)N)NC1=O [Peptide R54, Ac-Arg-Ala-[DCys-Arg-Nal(2′)-His-Pen]COOH] (Ac-RA[dC]R[2Nal]H[Pen]-OH; disulfide 3-7)
[1]
  IC50: 20 ± 2 nM

## CC(=O)N[C@@H](CCCNC(=N)N)C(=O)N[C@@H](C)C(=O)N[C@@H]1CSSC(C)(C)[C@@H](C(=O)O)NC(=O)[C@H](Cc2cnc[nH]2)NC(=O)[C@H](Cc2ccc3ccccc3c2)NC(=O)[C@H](CCCNC(=N)N)NC1=O [Peptide R54, Ac-Arg-Ala-[DCys-Arg-Nal(2′)-His-Pen]COOH] (Ac-RA[dC]R[2Nal]H[Pen]-OH; disulfide 3-7)
[2]
  IC50: 1.5 ± 0.5 nM

## C[C@H](NC(=O)[C@H](CCCNC(=N)N)NC(=O)CCCCCNC(=O)c1ccc(CNC(=O)CN2CCN(CC(=O)O)CCN(CC(=O)O)CCN(CC(=O)O)CC2)cc1)C(=O)N[C@@H]1CSSC(C)(C)[C@@H](C(=O)O)NC(=O)[C@H](Cc2c[nH]cn2)NC(=O)[C@H](Cc2ccc3ccccc3c2)NC(=O)[C@H](CCCNC(=N)N)NC1=O [[^68Ga]DOTA-AMBHA-R54, metal not drawn] ({DOTA-4Amb-Ahx}-RA[dC]R[2Nal]H[Pen]-OH; disulfide 3-7)
[3]
  tumor/non-tumor ratios: high tumor/non-tumor ratios
[4]
  SUV at 0.75 h: 2.02 ± 0.14 SUV
[5]
  maximum standardized uptake value (SUVmax): 2.02 ± 0.14 g/mL
  tumor accumulation upon co-injection of unlabeled competitor (R54): reduced to background levels

## C[C@H](NC(=O)[C@H](CCCNC(=N)N)NC(=O)CCCCCNC(=O)c1ccc(CNC(=O)CN2CCN(CC(=O)O)CCN(CC(=O)O)CC2)cc1)C(=O)N[C@@H]1CSSC(C)(C)[C@@H](C(=O)O)NC(=O)[C@H](Cc2c[nH]cn2)NC(=O)[C@H](Cc2ccc3ccccc3c2)NC(=O)[C@H](CCCNC(=N)N)NC1=O [[^68Ga]NOTA-AMBHA-R54, metal not drawn] ({NOTA-4Amb-Ahx}-RA[dC]R[2Nal]H[Pen]-OH; disulfide 3-7)
[3]
  excretion route: exclusive renal excretion
  tumor/non-tumor ratios: high tumor/non-tumor ratios
[4]
  SUV at 0.75 h: 19.6 ± 2 SUV
[5]
  maximum standardized uptake value (SUVmax): 19.6 ± 2.00 g/mL
  tumor accumulation upon co-injection of unlabeled competitor (R54): reduced to background levels

## {NOTA-AMBHA}-RA[dC]R[2Nal]H[Pen]-OH (disulfide 3-7, also called NOTA-Ahx-R54; NOTA-R54) [NOTA-AMBHA-R54]
[6]
  IC50: 36 nM

## {Fmoc-AMBHA}-RA[dC]R[2Nal]H[Pen]-OH (disulfide 3-7) [Fmoc-AMBHA-R54]
[6]
  IC50: 38.5 nM

## {DOTA-AMBHA}-RA[dC]R[2Nal]H[Pen]-OH (disulfide 3-7, also called DOTA-Ahx-R54; DOTA-R54) [DOTA-AMBHA-R54]
[6]
  IC50: 107 nM
